Data: paper PMC3873232

Key:
[1] = target: unmodified Spt5 CTD peptide (S. pombe); test: pull-down; biotinylated peptides (50 µg) on streptavidin Dynabeads incubated with 50-200 ng TAP-purified factor in 200 µl (20 mM Hepes pH 7.6, 37.5 mM KOAc, 2.5 mM MgOAc, 5% glycerol, 0.075% Triton X-100), 4°C, 1 h; washes with 250 mM KOAc; immunoblot with a TAP antibody; percent bound by ImageJ
[2] = target: Thr1-P form of the Spt5 CTD peptide (S. pombe); test: as above

Row | Substance | percent bound [1] [%] | percent bound [2] [%]
1 | PAF complex purified from the tpr1-TAP strain (from UniProt O42668 1-1039; Q9UUE7 1-371) | 5 | 
2 | Prf1-CBP (TAP-purified, native Prf1) (natural protein) | 10 | 35
